Values belong to the binder of their own block, whether it stands above or below them. Ends that are not written are not given here.
Assays:
[1] = biological target: T1, soluble CA125 in OVCAR-3 supernatant (human, UniProt Q8WXI7 1-14439, limits assumed, heavily glycosylated with O-linked and N-linked oligosaccharides); experiment: sandwich ELISA, captured rFc fusion, OVCAR-3 supernatant, OC125 detection
T1 construct: Not purified: used as OVCAR-3 culture supernatant, detected with the anti-CA125 mAb OC125; also called MUC16; OVCAR-3 supernatant containing CA125
Description: (§1) Sandwich ELISA—Nunc MaxiSorp 96 well flat-bottomed plates were incubated overnight with 5 μg/mL, goat anti-rabbit IgG (Jackson ImmunoResearch Laboratories) in PBS, followed by an overnight block with 5% BSA, 0.01% NaN₃ in PBS. Purified Fc mesothelin fragments were diluted to 1 μg/mL in ELISA buffer (0.01% Tween 20, 10% Pierce SuperBlock) and incubated on plate for 1 h at room temperature (RT). Plates were then incubated with OVCAR-3 supernatant containing CA125 for 1 h at RT. To detect bound CA125 a 1:200 dilution of anti-CA125 OC125 mAb (Zymed) was incubated for an additional hour at RT; subsequently a 1:1500 dilution of goat anti-mouse IgG HRP conjugate (Biosource) was added for 1 h at RT. The plates were washed four times with ELISA buffer between each coating.
(§2) Kinetic studies by ELISA—To precisely characterize the interaction between CA125 and mesothelin and to determine a binding affinity (KD) for each mesothelin fragment, we used a quantitative ELISA-based assay. ELISA plates were coated with a goat anti-rabbit IgG antibody overnight for capturing the Fc mesothelin mutant fusion proteins. OVCAR-3 supernatant containing soluble CA125 was then added, followed by the OC125 mAb. Overall results from the ELISA were consistent with those seen in the Western blot overlay assays except for the E324A mutant of mesothelin (FIG. 5).

[2] = biological target: T2, CA125 on the cell surface of OVCAR-3 or YOU cells (human, UniProt Q8WXI7 1-14507, heavily glycosylated with O-linked and N-linked oligosaccharides); experiment: flow cytometry on OVCAR-3 cells, FULL set to 100%
T2 construct: whole, on cells; also called MUC16; human CA125
Description: FIGS. 6A-B. Binding of truncated mutants and alanine mutants to CA125 on the cell surface of OVCAR-3 cells. A. OVCAR-3 ovarian cancer cells were incubated with full-length extracellular domain of mesothelin (FULL), Region I, IAB or IBC. The binding was visualized with a goat anti-rabbit IgG PE-conjugated secondary antibody by flow cytometry (gray line). Light gray shaded plot: secondary antibody only. B. A fluorescence intensity (geometrical mean) was used to quantitatively measure the CA125 binding. In each experiment, the binding of the full-length mature form of mesothelin (FULL) to CA125 was determined as 100% of binding. The secondary antibody only was used as a negative (0%) control.
(§3) Flow cytometry—To determine binding of mesothelin fragments to CA125 on the cell surface, OVCAR-3 or YOU cells were grown until confluent, detached, and then incubated with 1 μg/mL of mesothelin or its fragments in FACS buffer (5% BSA, 0.01% NaN₃) for 1 h on ice. Bound fragments were detected by incubating with a 1:200 dilution of Goat anti-Rabbit IgG-PE (Biosource) secondary antibody in FACS buffer for 0.5 h on ice. Cells were analyzed using FACSCalibur (BD Biosciences). Each binding experiment was repeated three to five times.
Cell binding assays by flow cytometry—To assess binding to CA125 on cancer cells, wild-type mesothelin and its mutants were incubated with cells. […]

[3] = biological target: T2, CA125 on the cell surface of OVCAR-3 or …; experiment: flow cytometry on YOU cells, FULL set to 100%
Description: FIGS. 7A-B. Binding of truncated mutants and alanine mutants to CA125 on the cell surface of YOU cells. A. YOU mesothelioma cells were incubated with full-length extracellular domain of mesothelin (FULL) or a mutant of mesothelin. The binding was visualized with a goat anti-rabbit IgG PE-conjugated secondary antibody by flow cytometry (gray line). Light gray shaded plot: secondary antibody only. B. A mean fluorescence intensity (geometrical mean) was used to quantitatively measure the CA125 binding on YOU cells. In each experiment, the binding of the full-length mesothelin (FULL) to CA125 was determined as 100% of binding. The secondary antibody only was used as a negative (0%) control.
as §3

[4] = biological target: T1, soluble CA125 in OVCAR-3 supernatant; experiment: sandwich ELISA, captured rFc fusion at various concentrations, OVCAR-3 supernatant, OC125 detection; nonlinear regression/Scatchard
Description: (§4) Scatchard plots (top left corner) were made. ELISA plates captured the Fc mesothelin mutant fusion proteins at various concentrations (x axis; see Experimental Procedures). OVCAR-3 supernatant containing soluble CA125 was then added, followed by the OC125 mAb and a goat anti-mouse IgG HRP.
as §1, §2

[5] = biological target: T1, soluble CA125 in OVCAR-3 supernatant; experiment: sandwich ELISA; average KD told of three proteins
Description: as §4, §1
Kinetic studies by ELISA—To precisely characterize the interaction between CA125 and mesothelin and to determine a binding affinity (KD) for each mesothelin fragment, we used a quantitative ELISA-based assay. ELISA plates were coated with a goat anti-rabbit IgG antibody overnight for capturing the Fc mesothelin mutant fusion proteins. […]

[6] = biological target: T1, soluble CA125 in OVCAR-3 supernatant; experiment: Western blot overlay with OVCAR-3 supernatant, OC125 detection
Description: FIGS. 4A-B. Western blots of mesothelin fragments and alanine mutants. Each protein (500 ng) was run on an SDS-PAGE gel and transferred to a PVDF membrane. Membrane was blotted with OVCAR-3 supernatant containing CA125 followed by OC125 (anti-CA125 mAb).
Western blots—Purified Fc mesothelin fragments (500 ng) were mixed with Laemmli Sample Buffer (Biorad) supplemented with 5% B-Mercaptoethanol. Samples were boiled for 2 min and separated on 4-20% SDS-PAGE gels (Invitrogen). After transfer for 4 h at 30V, the PVDF membrane was blocked overnight at 4° C. in 1% Western Blocking Reagent (Roche) in Tris buffered saline (50 mM Tris-HCl, 150 mM NaCl). The membrane was then incubated with OVCAR-3 supernatant+0.5% blocking solution for 1 h at RT. This was followed by incubation with 1:200 dilution of OC125 mAb for 1 h at RT. Detection was performed with goat anti-mouse IgG-HRP conjugate (Biosource) 1:1000 for 1 h.

[7] = biological target: soluble CA125 in OVCAR-3 supernatant (human) (UniProt Q8WXI7); experiment: sandwich ELISA; average KD told of three proteins
[8] = biological target: CA125 on the cell surface of OVCAR-3 or YOU cells (human) (UniProt Q8WXI7); experiment: cell-based or functional assay
[9] = biological target: soluble CA125 in OVCAR-3 supernatant (human) (UniProt Q8WXI7); experiment: sandwich ELISA, captured rFc fusion at various concentrations, OVCAR-3 supernatant, OC125 detection; nonlinear regression/Scatchard

B2: mesothelin Region IAB (296-359) rabbit IgG Fc fusion protein (Fc fusion, not shown: a dimerising Fc or GST; small tags and cut ends)
chain: EVEKTACPSGKKAREIDESLIFYKKWELEACVDAALLATQMDRVNAIPFTYEQLDVLKHKLDEL
notes: also called Region IAB wild-type (wt)
binding activity relative to FULL [2]: ~90%
Kd [4]: 3.35 nM
Kd [5]: ~3 nM

B4: W321A alanine mutant of mesothelin Region IAB (296-359), rabbit IgG Fc fusion protein (Fc fusion, not shown: a dimerising Fc or GST; small tags and cut ends)
chain: EVEKTACPSGKKAREIDESLIFYKKAELEACVDAALLATQMDRVNAIPFTYEQLDVLKHKLDEL
notes: Alanine mutant within Region IAB
Kd [4]: 19.5 nM

B5: H354A alanine mutant of mesothelin Region IAB (296-359), rabbit IgG Fc fusion protein (Fc fusion, not shown: a dimerising Fc or GST; small tags and cut ends)
chain: EVEKTACPSGKKAREIDESLIFYKKWELEACVDAALLATQMDRVNAIPFTYEQLDVLKAKLDEL
notes: Alanine mutant within Region IAB; also called H354A mutant of IAB
Kd [4]: 2.71 nM

B6: E324A alanine mutant of mesothelin Region IAB (296-359), rabbit IgG Fc fusion protein (Fc fusion, not shown: a dimerising Fc or GST; small tags and cut ends)
chain: EVEKTACPSGKKAREIDESLIFYKKWELAACVDAALLATQMDRVNAIPFTYEQLDVLKHKLDEL
notes: as for B4
Kd [4]: 42.4 nM

B10: mesothelin Region I (296-390) rabbit IgG Fc fusion protein (Fc fusion, not shown: a dimerising Fc or GST; small tags and cut ends)
chain: EVEKTACPSGKKAREIDESLIFYKKWELEACVDAALLATQMDRVNAIPFTYEQLDVLKHKLDELYPQGYPESVIQHLGYLFLKMSPEDIRKWNVT
CA125 binding activity relative to FULL [3]: ~40%
Kd [5]: ~3 nM

Continued, values first:

binding result [1]: no binding
CA125-binding activity relative to FULL [2]: ~10%
binding activity relative to FULL [3]: ~10%
B1: mesothelin Region IB (328-369) rabbit IgG Fc fusion protein (Fc fusion, not shown: a dimerising Fc or GST; small tags and cut ends)
chain: DAALLATQMDRVNAIPFTYEQLDVLKHKLDELYPQGYPESVI
modifications: also: fusion with rabbit IgG Fc, thrombin site with flexible linker, myc epitope (no letters given)

binding result [1]: no binding
B3: Y318A alanine mutant of mesothelin Region IAB (296-359), rabbit IgG Fc fusion protein (Fc fusion, not shown: a dimerising Fc or GST; small tags and cut ends)
chain: EVEKTACPSGKKAREIDESLIFAKKWELEACVDAALLATQMDRVNAIPFTYEQLDVLKHKLDEL
notes: as for B4

binding result [6]: no binding (tested: 500 ng)
B7: mesothelin Region IBC (328-405) rabbit IgG Fc fusion protein (Fc fusion, not shown: a dimerising Fc or GST; small tags and cut ends)
chain: DAALLATQMDRVNAIPFTYEQLDVLKHKLDELYPQGYPESVIQHLGYLFLKMSPEDIRKWNVTSLETLKALLEVNKGH

Kd [7]: 3 nM
adhesion of fluorescently labeled mesothelin-expressing H9 cells onto a YOU monolayer [8]: 1 µg/mL
adhesion of fluorescently labeled mesothelin-expressing H9 cells onto an OVCAR3 monolayer [8]: 10 µg/mL
Kd [9]: 1.54 nM
B8: rabbit IgG Fc fusion of the full-length extracellular domain of mesothelin (296-581) (Fc fusion, part only; not given: rabbit Fc, linker, myc tag, not shown: a dimerising Fc or GST; small tags and cut ends)
chain (part 1 of 2), part: EVEKTACPSGKKAREIDESLIFYKKWELEACVDAALLATQMDRVNAIPFTYEQLDVLKHKLDELYPQGYPESVIQHLGYLFLKMSPEDIRKWNVTSLETLKALLEVNKGHEMSPQAPRRPLPQVATLIDRFVKGRGQLDKDTLDTLTAFYPGYLCSLSPEELSSVPPSSIWAVRPQDLDTCDPRQLDVLYPKARLAFQNMNGSEYFVKIQSFLGGAPTEDLKALSQQNVSMDLATFMKLRTDAVLPLTVAEVQKLLGPHVEGLKAEERHRPVRDWILRQRQDDLDT
chain (part 2 of 2), part: HHHHHH

binding result [1]: no binding
B9: mesothelin Region IC (360-405) rabbit IgG Fc fusion protein (Fc fusion, not shown: a dimerising Fc or GST; small tags and cut ends)
chain: YPQGYPESVIQHLGYLFLKMSPEDIRKWNVTSLETLKALLEVNKGH
modifications: also: fusion with rabbit IgG Fc, thrombin site with flexible linker, myc epitope (no letters given)

binding result [6]: no binding (tested: 500 ng)
B11: mesothelin Region IA (296-337) rabbit IgG Fc fusion protein, rFc at the C-terminus (Fc fusion)
chain: EVEKTACPSGKKAREIDESLIFYKKWELEACVDAALLATQMD
notes: not shown: junction between fragment and rFc, and any tags, not described for this construct; rabbit IgG Fc (rFc)

— patent US20110236385A1 (GOVERNMENT OF THE UNITED STATES OF AMERICA AS REPRESENTED …, published 2011)
